Consider 18 molecules from patent EP4585616A1, “ANTIBODY CAPABLE OF SPECIFICALLY BINDING TO ROR1, […] THEREOF, AND PREPARATION METHOD THEREFOR AND USE THEREOF” (Hefei Institutes of Physical Science, Chinese Academy of …, priority 2022, dated 2024).

The target in assay [1] is T1, human ROR1 on the surface of tumor cells (human, UniProt Q01973 30-937).
T1 construct: whole, on cells; also called ROR1 on the cell surface; tumor cell ROR1
Nature of the assay: FACS, MDA-MB-231 cells. On the technique in general: A flow cytometer gives signals particle by particle.

Assay [2] deals with T2, Extracellular domain of human ROR1 protein (ROR1-ECD) (human, UniProt Q01973 30-403).
T2 construct: Expressed in HEK293T cells; also called human ROR1-ECD; purified human ROR1 protein extracellular segment
T2 sequence (Q01973 other isoform, or with tags, fused parts or gaps): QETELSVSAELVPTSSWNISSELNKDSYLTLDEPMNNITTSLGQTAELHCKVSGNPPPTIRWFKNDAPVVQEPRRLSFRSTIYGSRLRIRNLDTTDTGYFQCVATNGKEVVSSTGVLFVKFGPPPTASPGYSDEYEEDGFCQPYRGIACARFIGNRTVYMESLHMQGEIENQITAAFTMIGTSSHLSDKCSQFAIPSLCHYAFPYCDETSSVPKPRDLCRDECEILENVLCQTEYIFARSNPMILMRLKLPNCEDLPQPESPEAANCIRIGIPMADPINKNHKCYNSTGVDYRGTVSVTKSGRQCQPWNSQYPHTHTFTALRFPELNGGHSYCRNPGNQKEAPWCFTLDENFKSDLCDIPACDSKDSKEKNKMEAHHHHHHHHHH
As to the kind of experiment: ELISA, plate-coated ROR1-ECD. (An ELISA detects its analyte on a solid surface through an enzyme-linked reagent.)

T1 sequence (Q01973 30-937): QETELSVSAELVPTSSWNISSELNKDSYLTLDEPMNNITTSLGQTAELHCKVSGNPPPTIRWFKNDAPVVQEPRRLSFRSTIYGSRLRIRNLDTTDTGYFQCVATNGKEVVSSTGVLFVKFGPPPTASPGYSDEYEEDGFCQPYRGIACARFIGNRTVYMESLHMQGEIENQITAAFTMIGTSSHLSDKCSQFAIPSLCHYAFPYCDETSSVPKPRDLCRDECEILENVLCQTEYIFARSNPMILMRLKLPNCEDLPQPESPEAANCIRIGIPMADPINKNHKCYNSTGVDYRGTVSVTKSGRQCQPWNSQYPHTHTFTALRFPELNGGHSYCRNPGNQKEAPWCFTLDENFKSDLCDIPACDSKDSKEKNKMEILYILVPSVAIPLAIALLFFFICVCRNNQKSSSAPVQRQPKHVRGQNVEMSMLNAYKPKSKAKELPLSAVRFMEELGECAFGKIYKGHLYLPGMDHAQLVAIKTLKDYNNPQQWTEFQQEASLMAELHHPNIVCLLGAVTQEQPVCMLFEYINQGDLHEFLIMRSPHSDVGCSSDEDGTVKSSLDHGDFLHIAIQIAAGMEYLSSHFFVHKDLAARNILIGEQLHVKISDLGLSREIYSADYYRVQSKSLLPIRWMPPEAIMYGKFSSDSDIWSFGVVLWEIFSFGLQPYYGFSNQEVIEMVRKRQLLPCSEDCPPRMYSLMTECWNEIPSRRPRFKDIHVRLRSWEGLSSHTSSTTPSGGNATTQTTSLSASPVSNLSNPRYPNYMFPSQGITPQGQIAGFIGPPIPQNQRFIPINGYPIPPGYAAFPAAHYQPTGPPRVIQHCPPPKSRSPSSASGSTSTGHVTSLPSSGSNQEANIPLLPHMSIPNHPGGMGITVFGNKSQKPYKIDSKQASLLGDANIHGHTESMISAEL

B1: Hu001-05 (antibody, V domains shown)
VH: QVQLVQSGAEVKKPGASVKVSCKASGYTFTDYNLHWVRQAPGQGLEWMGYINPNHDATSYNQKFQGKVTMTVDTSTSTVYMELSSLRSEDTAVYYCARRVRTGTGLDDWGQGTTVTVSS
VL: DVVMTQSPLSLPVTLGQPASISCRSSHNIVHTNANTYLEWYQQRPGQSPRLLIYKVSNRFSGVPDRFSGSGSGTDFTLKISRVEAEDVGVYYCFQGSRFPYTFGGGTKVEIK
notes: Humanized; also called Hu001-5
Take B1: the binding result in assay [1] and in assay [2] was “binds” in each case.

B2: Hu001-12 (antibody, V domains shown)
VH: QVQLVQSGAEVKKPGASVKVSCKASGYTFTDYNLHWVKQAPGQGLEWIGYINPNHDATSYNQKFQGKATLTVDTSTSTVYMELSSLRSEDTAVYYCARRVRTGTGLDDWGQGTTVTVSS
VL: DVVMTQSPLSLPVTLGQPASISCRSSHNIVHTNANTYLEWYQQRPGQSPKLLIYKVSNRFSGVPDRFSGSGSGTDFTLKISRVEAEDVGVYYCFQGSRFPYTFGGGTKVEIK
notes: Humanized
Take B2: the binding result in assay [1] and in assay [2] was “binds” each time.

B3: Hu001-15 (antibody, V domains shown)
VH: QVQLVQSGAEVKKPGASVKVSCKASGYTFTDYNLHWVKQAPGQGLEWIGYINPNHDATSYNQKFQGKATLTVDTSTSTAYMELSSLTSEDTAVYYCARRVRTGTGLDDWGQGTTVTVSS
VL: DVVMTQSPLSLPVTLGQPASISCRSSHNIVHTNANTYLEWYQQRPGQSPKLLIYKVSNRFSGVPDRFSGSGSGTDFTLKISRVEAEDVGVYYCFQGSRFPYTFGGGTKVEIK
notes: Humanized
Turning to B3, the binding result in assay [1] and in assay [2] was “binds” in each case.

B4: Hu001-08 (antibody, V domains shown)
VH: QVQLVQSGAEVKKPGASVKVSCKASGYTFTDYNLHWVKQAPGQGLEWIGYINPNHDATSYNQKFQGKVTMTVDTSTSTVYMELSSLRSEDTAVYYCARRVRTGTGLDDWGQGTTVTVSS
VL: DVVMTQSPLSLPVTLGQPASISCRSSHNIVHTNANTYLEWYQQRPGQSPRLLIYKVSNRFSGVPDRFSGSGSGTDFTLKISRVEAEDVGVYYCFQGSRFPYTFGGGTKVEIK
notes: Humanized; also called Hu001-8
On to B4, for which the binding result in assay [1] and in assay [2] was “binds” each time.

B5: Hu001-02 (antibody, V domains shown)
VH: QVQLVQSGAEVKKPGASVKVSCKASGYTFTDYNLHWVRQAPGQGLEWMGYINPNHDATSYNQKFQGRVTMTRDTSTSTVYMELSSLRSEDTAVYYCARRVRTGTGLDDWGQGTTVTVSS
VL: DVVMTQSPLSLPVTLGQPASISCRSSHNIVHTNANTYLEWYQQRPGQSPRLLIYKVSNRFSGVPDRFSGSGSGTDFTLKISRVEAEDVGVYYCFQGSRFPYTFGGGTKVEIK
notes: Humanized; also called Hu001-2
As to B5, the binding result in assay [1] and in assay [2] was “binds” each time.

B6: Hu001-14 (antibody, V domains shown)
VH: QVQLVQSGAEVKKPGASVKVSCKASGYTFTDYNLHWVKQAPGQGLEWIGYINPNHDATSYNQKFQGKATLTVDTSTSTAYMELSSLTSEDTAVYYCARRVRTGTGLDDWGQGTTVTVSS
VL: DVVMTQSPLSLPVTLGQPASISCRSSHNIVHTNANTYLEWYQQRPGQSPRLLIYKVSNRFSGVPDRFSGSGSGTDFTLKISRVEAEDVGVYYCFQGSRFPYTFGGGTKVEIK
notes: Humanized
Regarding B6, the binding result in assay [1] and in assay [2] was “binds” throughout.

B7: Hu001-3-MMAE (antibody, human IgG1, DAR about 4.15, V domains shown)
VH: QVQLVQSGAEVKKPGASVKVSCKASGYTFTDYNLHWVRQAPGQGLEWMGYINPNHDATSYNQKFQGRVTMTRDTSTSTVYMELSSLRSEDTAVYYCARRVRTGTGLDDWGQGTTVTVSS
VL: DVVMTQSPLSLPVTLGQPASISCRSSHNIVHTNANTYLEWYQQRPGQSPKLLIYKVSNRFSGVPDRFSGSGSGTDFTLKISRVEAEDVGVYYCFQGSRFPYTFGGGTKVEIK
modifications: vcMMAE on cysteines after TCEP reduction, positions not given
notes: Antibody-drug conjugate of Hu001-3 (human IgG1, Kappa) with vcMMAE
For B7, the binding result in assay [1] and in assay [2] was “binds” throughout.

B8: Hu001-06 (antibody, V domains shown)
VH: QVQLVQSGAEVKKPGASVKVSCKASGYTFTDYNLHWVRQAPGQGLEWMGYINPNHDATSYNQKFQGKVTMTVDTSTSTVYMELSSLRSEDTAVYYCARRVRTGTGLDDWGQGTTVTVSS
VL: DVVMTQSPLSLPVTLGQPASISCRSSHNIVHTNANTYLEWYQQRPGQSPKLLIYKVSNRFSGVPDRFSGSGSGTDFTLKISRVEAEDVGVYYCFQGSRFPYTFGGGTKVEIK
notes: Humanized; also called Hu001-6
Regarding B8, the binding result in assay [1] and in assay [2] was “binds” in each case.

B9: Hu001-2-MMAE (antibody, human IgG1, DAR about 4.15, V domains shown)
VH: QVQLVQSGAEVKKPGASVKVSCKASGYTFTDYNLHWVRQAPGQGLEWMGYINPNHDATSYNQKFQGRVTMTRDTSTSTVYMELSSLRSEDTAVYYCARRVRTGTGLDDWGQGTTVTVSS
VL: DVVMTQSPLSLPVTLGQPASISCRSSHNIVHTNANTYLEWYQQRPGQSPRLLIYKVSNRFSGVPDRFSGSGSGTDFTLKISRVEAEDVGVYYCFQGSRFPYTFGGGTKVEIK
modifications: vcMMAE on cysteines after TCEP reduction, positions not given
notes: Antibody-drug conjugate of Hu001-2 (human IgG1, Kappa) with vcMMAE
Turning to B9, the binding result in assay [1] and in assay [2] was “binds” in each case.

B10: Hu001-03 (antibody, V domains shown)
VH: QVQLVQSGAEVKKPGASVKVSCKASGYTFTDYNLHWVRQAPGQGLEWMGYINPNHDATSYNQKFQGRVTMTRDTSTSTVYMELSSLRSEDTAVYYCARRVRTGTGLDDWGQGTTVTVSS
VL: DVVMTQSPLSLPVTLGQPASISCRSSHNIVHTNANTYLEWYQQRPGQSPKLLIYKVSNRFSGVPDRFSGSGSGTDFTLKISRVEAEDVGVYYCFQGSRFPYTFGGGTKVEIK
notes: Humanized; also called Hu001-3
Turning to B10, the binding result in assay [1] and in assay [2] was “binds” in each case.

B11: Hu001-11 (antibody, V domains shown)
VH: QVQLVQSGAEVKKPGASVKVSCKASGYTFTDYNLHWVKQAPGQGLEWIGYINPNHDATSYNQKFQGKATLTVDTSTSTVYMELSSLRSEDTAVYYCARRVRTGTGLDDWGQGTTVTVSS
VL: DVVMTQSPLSLPVTLGQPASISCRSSHNIVHTNANTYLEWYQQRPGQSPRLLIYKVSNRFSGVPDRFSGSGSGTDFTLKISRVEAEDVGVYYCFQGSRFPYTFGGGTKVEIK
notes: Humanized
Regarding B11, the binding result in assay [1] and in assay [2] was “binds” in each case.

B12: Hu005-46 (antibody, V domains shown)
VH: EVQLVESGGGLVKPGGSLRLSCAASGFTFNSYAMSWVRQTPGKRLEWVATISDAGSYTYYPDNEKGRFTISRDNAKNSLYLQMNSLRAEDTAIYYCVRGGYYYNLYAMDYWGQGTLVTVSS
VL: DIVLTQSPDSLAVSLGERATINCKASQSVSFPGTSLMHWYQQKPGQQPKLLIYRASNLEAGVPDRFSGSGSRTDFTLTISSLQAEDVAVYYCQQSREYPWTFGGGTKVEIK
notes: Humanized
For the molecule B12, the binding result in assay [1] and in assay [2] was “binds” throughout.

B13: Hu005-41 (antibody, V domains shown)
VH: EVQLVESGGGLVKPGGSLRLSCAASGFTFNSYAMSWVRQTPGKRLEWVATISDAGSYTYYPDNEKGRFTISRDNAKNNLYLQMNSLRAEDTAIYYCVRGGYYYNLYAMDYWGQGTLVTVSS
VL: DIVLTQSPDSLAVSLGERATINCKASQSVSFPGTSLMHWYQQKPGQQPKLLIYRASNLEAGVPDRFSGSGSRTDFTLTISSLQAEDVAVYYCQQSREYPWTFGGGTKVEIK
notes: Humanized
B13: the binding result in assay [1] and in assay [2] was “binds” throughout.

B14: Hu005-43 (antibody, V domains shown)
VH: EVQLVESGGGLVKPGGSLRLSCAASGFTFNSYAMSWVRQTPGKGLEWVATISDAGSYTYYPDNEKGRFTISRDNAKNNLYLQMNSLRAEDTAIYYCVRGGYYYNLYAMDYWGQGTLVTVSS
VL: DIVLTQSPDSLAVSLGERATINCKASQSVSFPGTSLMHWYQQKPGQQPKLLIYRASNLEAGVPDRFSGSGSRTDFTLTISSLQAEDVAVYYCQQSREYPWTFGGGTKVEIK
notes: Humanized
With B14, the binding result in assay [1] and in assay [2] was “binds” each time.

B15: Hu005-35 (antibody, V domains shown)
VH: EVQLVESGGGLVKPGGSLRLSCAASGFTFNSYAMSWVRQTPEKRLEWVATISDAGSYTYYPDNEKGRFTISRDNAKNNLYLQMNSLRAEDTAIYYCVRGGYYYNLYAMDYWGQGTLVTVSS
VL: DIVLTQSPDSLAVSLGERATINCKASQSVSFPGTSLMHWYQQKPGQQPKLLIYRASNLEAGVPDRFSGSGSRTDFTLTISSLQAEDVAVYYCQQSREYPWTFGGGTKVEIK
notes: Humanized
Take B15: the binding result in assay [1] and in assay [2] was “binds” each time.

B16: Hu005-42 (antibody, V domains shown)
VH: EVQLVESGGGLVKPGGSLRLSCAASGFTFNSYAMSWVRQTPEKRLEWVATISDAGSYTYYPDNEKGRFTISRDNAKNSLYLQMNSLRAEDTAIYYCVRGGYYYNLYAMDYWGQGTLVTVSS
VL: DIVLTQSPDSLAVSLGERATINCKASQSVSFPGTSLMHWYQQKPGQQPKLLIYRASNLEAGVPDRFSGSGSRTDFTLTISSLQAEDVAVYYCQQSREYPWTFGGGTKVEIK
notes: Humanized
Consider B16, for which the binding result in assay [1] and in assay [2] was “binds” in each case.

B17: Hu005-40 (antibody, V domains shown)
VH: EVQLVESGGGLVKPGGSLRLSCAASGFTFNSYAMSWVRQTPEKGLEWVATISDAGSYTYYPDNEKGRFTISRDNAKNNLYLQMNSLRAEDTAIYYCVRGGYYYNLYAMDYWGQGTLVTVSS
VL: DIVLTQSPDSLAVSLGERATINCKASQSVSFPGTSLMHWYQQKPGQQPKLLIYRASNLEAGVPDRFSGSGSRTDFTLTISSLQAEDVAVYYCQQSREYPWTFGGGTKVEIK
notes: Humanized
For the molecule B17, the binding result in assay [1] and in assay [2] was “binds” each time.

B18: Hu005-44 (antibody, V domains shown)
VH: EVQLVESGGGLVKPGGSLRLSCAASGFTFNSYAMSWVRQTPGKGLEWVATISDAGSYTYYPDNEKGRFTISRDNAKNSLYLQMNSLRAEDTAIYYCVRGGYYYNLYAMDYWGQGTLVTVSS
VL: DIVLTQSPDSLAVSLGERATINCKASQSVSFPGTSLMHWYQQKPGQQPKLLIYRASNLEAGVPDRFSGSGSRTDFTLTISSLQAEDVAVYYCQQSREYPWTFGGGTKVEIK
notes: Humanized
B18: the binding result in assay [1] and in assay [2] was “binds” each time.
